# Assay: yeast display, Sf9 membrane polyspecificity reagent, FACS + sequencing; frameworks hold sequencing errors
# In short: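 Nanobodies from a synthetic yeast display library (Saccharomyces cerevisiae BJ5465), induced 36–48 hours with galactose, were stained 1 hour at 4 °C with 10% biotinylated, detergent-solubilized Sf9 membrane reagent, enriched on streptavidin microbeads, then FACS-sorted. Anti-HA (expression) and streptavidin (reagent binding) fluorescence set low and high (top ~1%) gates. Polyreactivity labels come from the gate of origin. Genes were colony-PCR amplified, MiSeq 2 × 250 sequenced and filtered by CDR length.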
row,Sequence,polyreactivity (PSR sort gate)
1,QVQLVESGGGLVQAGGSLRLSCAASGRTFSTNAMGWYRQAPGKEREFVAAITGSGGSTYYADSVKGRFTISRDNAKNTVYLQMNSLKPEDTAVYYCAKRSAWHTYRYGYWGQGTQVTVSS,high polyreactivity
2,QVQLVESGGGLVQAGGSLRLSCAASGRTFSVNAMGWYRQAPGKERELVAAISWDGGSTYYADSVKGRFTISRDNAKNTVYLQMNSLKPVDTAVYYCNKDLYYAYDYWGQGTQVTVSS,low polyreactivity
3,QVQLVESGGGLVQAGGSLRLSCAASGRTFSVNDMGWYRQAPWKEREFVAAISFSGGSTYYADSVKGRFTISRDNAKNTVYLLMNSLKPEDSAVYYSAAEAYPSWFYVITGFGIYDYWGQGTQVTGSS,high polyreactivity
4,QVQLVESGGGLVQAGGSLRLSCAASGRTFSVYAKGWYRQAPGKERELVAGITSGGSTNYADSVKGRFTISRDNAKNTVYLQMNSLKPEDTAVYYCAAENVYAGFGFVSIGDYWGHGTQVTVSS,low polyreactivity
5,QVQLVESGGGLVQAGGSLRLSCAASGRTFSVYTMGWYREAPGQERELVAAISSTGRTNYADSVKGRFTISRDNAKNTVYLQMNSQKPEATAVYDCNAGVRNSYTRHALVTAYYLYYYWRQGTQVTVSS,high polyreactivity
6,QVQLVESGGGLVQAGGSLRLSCAASGRTFSYAMGWYRQAPGKERELVAAISSGARTYYADSVKGRFTISRDNAKNTVYLQMNSLIPEDTAVYYCNARSRYEGLNYWGHGTQVTVSS,high polyreactivity
7,QVQLVESGGGLVQAGGSLRLSCAASGRTFSYAMGWYRQAPGKERELVAGISWSGGRTYYADSVKGRFTISRDNAKNTVYLQMNSLKPEDTAVYYCAAGGRARTYYYWGQGTQVTVSS,high polyreactivity
8,QVQLVESGGGLVQAGGSLRLSCAASGRTFSYNAMGWYRQAPGKERELVAAINWRAGRTYYADSVKGRFTISRDNAKNTVYLQMNSLKPEDTAVYYCNARSGRGQAYGYWGQGTQVTVSS,high polyreactivity
9,QVQLVESGGGLVQAGGSLRLSCAASGRTFSYNAMGWYRQAPGKERELVAAITSSGGGTSYADSVKGRFTISRDNAKNTVYLQMNSLKPEDTAVYYCNRVLPHPDGYGVGARGYWGQGTQVTVSS,high polyreactivity
10,QVQLVESGGGLVQAGGSLRLSCAASGRTFSYNTMGWYRQAPGTERELVARITWGGGSTNYADSVKGRFTISRDNAKNTFYLQMNSLKPEDTAVYYCAAGPSVPYGPQKVDYWGQGTQVTVSS,low polyreactivity
11,QVQLVESGGGLVQAGGSLRLSCAASGRTFSYYTMGWYRQAPGKERELVAAITSSGGSTYYADSVKGRFTISRDNAKNTVYLQMNSLKPEDTAVYYCAVLNYAGKYYYWGQGTQVTVSS,high polyreactivity
12,QVQLVESGGGLVQAGGSLRLSCAASGRTFTAYAMGWYRQAPGKERELVASISSGVTYADSVKGRFTISRDNAKNTVYLQMTSLKPEDTAVYYCAARLWYVQGYVPYVHHRFDYWGQGTQVTVSS,low polyreactivity
13,QVQLVESGGGLVQAGGSLRLSCAASGRTFTCYAMGWYRQAPGKERELVATAITSGGSTNYADSVKGRFTISRDNAKNTVYLQMISLKPEDTAVYYCAAVPTEFGNRLEYDYWGQGTQVTVSS,low polyreactivity
14,QVQLVESGGGLVQAGGSLRLSCAASGRTFTFYTMGWDRQAPGKERELVARITGGGSTYYADSVKGRFTISRDNAKNTVYLQMNSLKPEDTAVYYCAAASGTKRLYRGTRGDYWGQGTQVTVSS,low polyreactivity
15,QVQLVESGGGLVQAGGSLRLSCAASGRTFTGNAMGCYRQAPGKERELVAAISTSGTRTSYADSVKGRFTISRDNAKNTVYLQMNSLKPEDTAVYYCAALRKSLYRTYTYDYWGQGTQVTVSS,high polyreactivity
16,QVQLVESGGGLVQAGGSLRLSCAASGRTFTGNAMGWYRQATGKERELVAAINSGGGRTFYADSVKGRFTISRDNAKNTVYLQMTSLKPEDTAVYYCNAVKYRSYYWGQGTQVTVSS,high polyreactivity
17,QVQLVESGGGLVQAGGSLRLSCAASGRTFTGYAMGWYRKAPGKERELVAAIRRTASTYYADSVKGRFTISRDNAKNTVYLQMNSLKPEDTAVYYCAVRAAHRGTYYYWGQGTQVTVSS,high polyreactivity
18,QVQLVESGGGLVQAGGSLRLSCAASGRTFTGYAMGWYRQAPGKERELVAAISRRGASTYYADSVKGRFTISRDNAKNTVYLQMNSLKPEDTAVYYCAAYLYGLWSVGRDYWGQGTQVTVSS,high polyreactivity
19,QVQLVESGGGLVQAGGSLRLSCAASGRTFTGYAMGWYRQAPGKERELVASISRRGGSTYYADSVKGRFTISRDNAKNTVYLQMNSLKPEDTAVYSCAADSVRHTYSWWYAVDYWGQGTQVTVSS,high polyreactivity
20,QVQLVESGGGLVQAGGSLRLSCAASGRTFTGYTKGWYRQAPGKEREFVAAISSNGGRTYYADSVKGRFTISRDNAKNTVYLQMNSLKPEDTAVYYCAARYTFWGQGTQVTVSS,high polyreactivity
21,QVQLVESGGGLVQAGGSLRLSCAASGRTFTIYAMGWYRQAPGKERDLVAAITRSGGGTYYADSVKGRFTISRDNAKNTVYLQMNRLKPEDTAVYYCARDKHWFYGVIGPEDYWGQGTQVTVSS,low polyreactivity

row,Sequence,polyreactivity (PSR sort gate)
1,QVQLVESGGGLVQAGGSLRLSCAASGRTFTIYAMGWYRQAPGKERELVAGITSAGRTYYADSVKGRFTISRDNAKNTVYSQMNSLNPEDTAVDYCAASGSYAIVWGDQYYGYYYWGQGTQVTVSS,high polyreactivity
2,QVQLVESGGGLVQAGGSLRLSCAASGRTFTNNAMGWYRQAPGKERELVAAIRWSGGYTYYADSVKGRFTISRDNAKNTVYLQMNSQKPEDTAVYYCAKGYGYVEAVIVQYDYWGQGSQVTVSS,low polyreactivity
3,QVQLVESGGGLVQAGGSLRLSCAASGRTFTPYAKGWYRQAPGKERELVATISSGTSTNYADSVKGRFTISLDNAKYTVYLQMNSLKPEDTAVYYCAADGYTYKFDYWGQGSQVTVSS,low polyreactivity
4,QVQLVESGGGLVQAGGSLRLSCAASGRTFTPYTRGWYRQAPGKEREFVPAIRTGGNTYYADSVKGRFTISRDNAKNTVYLQMNSLKPEDTAVYYCAARDRIGYRLYYWGQGTQVTVSS,high polyreactivity
5,QVQLVESGGGLVQAGGSLRLSCAASGRTFTQNAMGWYRQAPGKERELVAAISSGGRTYYADSVKGRFTISRDNAKNTVYLQMNSLKPEDTAVYYCNAGGGRRMYWGLGTQVTVSS,high polyreactivity
6,QVQLVESGGGLVQAGGSLRLSCAASGRTFTQYAMGWYRQAPGKERELVARISYSGGTTYYADSVKGRFTISRDNAKNTVYLQMNSLKPEDNAVYYCAKARVVAGYDYWGQGTQVTVSS,high polyreactivity
7,QVQLVESGGGLVQAGGSLRLSCAASGRTFTRNVMGWYRQAPGKERELVARISYSGGSTSYADSVKGRFTISRDNAKNTVYLQMNSLKPEDTAVYYCAKYSGKYVSGRYRYYSWGQGTQVTVSS,high polyreactivity
8,QVQLVESGGGLVQAGGSLRLSCAASGRTFTRYAMGWYRQAPGKERELVAAISWSGGSTYYADSVKGRFTISRDNAKNTVYLQMNSLKPEDTAVYYCNAYYYYPEFNYWGLGTQVTVSS,high polyreactivity
9,QVQLVESGGGLVQAGGSLRLSCAASGRTFTRYAMGWYRQAPGKERELVAAITSSGRTYYADSVKGRFTISRDNAKNTVYLQMNSLKPEDTAVYYCAKYRANALNYANRGAGDYWGQGTQVTVSS,high polyreactivity
10,QVQLVESGGGLVQAGGSLRLSCAASGRTFTRYAMGWYRQAPGKERELVASISSRGTRTYYADSVKGRFTISRDNAKNTVYLQMNSLKPDDTAVYYCNVGFYPYYFLTYQGGDYWGQGTQVTVSS,high polyreactivity
11,QVQLVESGGGLVQAGGSLRLSCAASGRTFTSNAMGWYRPAPGKERELVAAITQSGGSTYYADSVKGRFTISRDNAKNTVYLQMNSLKPEDTAVYYCNAETTGRTEYNYWGQGTQVTVSS,low polyreactivity
12,QVQLVESGGGLVQAGGSLRLSCAASGRTFTSNAMGWYRQAPGKERELVAAITRGGSTYYADSVKGRFTISRDNAKNTVYLQMNSLKPEDTAVYYCNAGIYFRRKRYDYWGQGTQVTVSS,high polyreactivity
13,QVQLVESGGGLVQAGGSLRLSCAASGRTFTVNAMGWYRQAPGKERELVARISYGGARTYYADSVKGRFTISRDNAKNTVYLQMNSLKPEDTAVYYSAAPGPRKYEYDYWGQGTQVTVSS,high polyreactivity
14,QVQLVESGGGLVQAGGSLRLSCAASGRTFTVYAMGWYRQAPGKERELVAAIIYSGGRTYYADSVKGRFTISRDNAKNTVYLQMNSLKPEDTAVYYCAAYVYQSCPRFSRYGGYDYWGQGTQVTVSS,low polyreactivity
15,QVQLVESGGGLVQAGGSLRLSCAASGRTFTVYAMGWYRQAPGKERELVAAIRRRGGSTYYADSVKGRFTISRDNAKNTVYLQMNSLKPEDTAVYYCAADNWYKKQKRPSAYDYWGQGTQVTVSS,high polyreactivity
16,QVQLVESGGGLVQAGGSLRLSCAASGRTFTVYAMGWYRQAPGKERELVAAIRRTGSTYYADSVKGRFTISRDNAKNTVYLQMNSLKPEDTAVYYCNAEGSSVLTGYWGYPPYWDTYDYWGQGTQVTVSS,low polyreactivity
17,QVQLVESGGGLVQAGGSLRLSCAASGRTFTYYAIGWYRQAPGKERELVADINRSGGDTYYADSVKGRFTISRDNAKNTVYLQMNSLKPEDTAVYYSAADDWGAQHRYDYWGQGTQVTVSS,low polyreactivity
18,QVQLVESGGGLVQAGGSLRLSCAASGRTFTYYAMGWSRQAPGKERELVASITSGGSTYADSVKGRFTISRDNAKNTVYLQMNSLKPEDTAVYYCAARAWGYRYKYYWGQGTQVTVSS,high polyreactivity
19,QVQLVESGGGLVQAGGSLRLSCAASGRTFVFNAMGWYRPAPGKERELVAAITKNGGSTYYADSVKGRFTISRDNAKNTVYLQMNSLKPEDTAVYYCAAQWWRLYWEYYYWGQGTQVTVSS,low polyreactivity
20,QVQLVESGGGLVQAGGSLRLSCAASGRTFVFNAMGWYRQAPGKERELVAAISARGGRTYYADSVKGRFTISRDNAKNTVYLQMNSLKPEDTAVYYCATVPYPNRKVGVDYWGQGTQVTVSS,high polyreactivity
